Experimental data: US20100048462A1, “TRUNCATED PTH PEPTIDES WITH A CYCLIC CONFORMATION” (Zealand Pharma A/S, priority 2006, published 2010)
Where two headings read alike, the source gives them in different places. Bridge positions count the residues as written; N and C are the ends. Square brackets hold non-standard residues; d marks the D form. hArg = N=C(N)NCCCC[C@H](N)C(=O)O; Ac5c = NC1(C(=O)O)CCCC1; Dap = NC[C@H](N)C(=O)O; Aib = CC(C)(N)C(=O)O

Key:
Experiment in all cases: cell-based or functional assay
[1] = target: PTH receptor 1 on MC3T3-E1 cells (murine) (UniProt P41593)
CYP2D6 = CYP2D6 (Homo sapiens, UniProt P10635)
Saos-2 PTH1R = Saos-2 PTH1R (UniProt Q03431)
Sequence of Saos-2 PTH1R (Q03431 27-593 limits assumed): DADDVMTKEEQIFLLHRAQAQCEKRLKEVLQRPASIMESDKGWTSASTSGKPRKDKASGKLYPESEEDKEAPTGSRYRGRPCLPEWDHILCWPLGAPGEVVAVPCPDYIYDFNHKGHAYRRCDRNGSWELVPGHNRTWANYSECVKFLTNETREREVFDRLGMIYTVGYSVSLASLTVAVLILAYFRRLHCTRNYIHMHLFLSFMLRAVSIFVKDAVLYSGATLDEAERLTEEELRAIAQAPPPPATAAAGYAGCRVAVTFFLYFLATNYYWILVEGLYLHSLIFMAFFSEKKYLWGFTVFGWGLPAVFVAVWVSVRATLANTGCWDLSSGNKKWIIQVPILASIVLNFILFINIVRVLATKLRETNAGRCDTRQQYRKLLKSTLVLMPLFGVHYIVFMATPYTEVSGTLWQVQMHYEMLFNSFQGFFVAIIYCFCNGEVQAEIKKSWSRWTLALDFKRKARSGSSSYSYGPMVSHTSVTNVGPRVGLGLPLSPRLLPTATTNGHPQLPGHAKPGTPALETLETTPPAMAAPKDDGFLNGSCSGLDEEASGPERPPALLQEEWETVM

Sequence of CYP2D6 (P10635 whole entry): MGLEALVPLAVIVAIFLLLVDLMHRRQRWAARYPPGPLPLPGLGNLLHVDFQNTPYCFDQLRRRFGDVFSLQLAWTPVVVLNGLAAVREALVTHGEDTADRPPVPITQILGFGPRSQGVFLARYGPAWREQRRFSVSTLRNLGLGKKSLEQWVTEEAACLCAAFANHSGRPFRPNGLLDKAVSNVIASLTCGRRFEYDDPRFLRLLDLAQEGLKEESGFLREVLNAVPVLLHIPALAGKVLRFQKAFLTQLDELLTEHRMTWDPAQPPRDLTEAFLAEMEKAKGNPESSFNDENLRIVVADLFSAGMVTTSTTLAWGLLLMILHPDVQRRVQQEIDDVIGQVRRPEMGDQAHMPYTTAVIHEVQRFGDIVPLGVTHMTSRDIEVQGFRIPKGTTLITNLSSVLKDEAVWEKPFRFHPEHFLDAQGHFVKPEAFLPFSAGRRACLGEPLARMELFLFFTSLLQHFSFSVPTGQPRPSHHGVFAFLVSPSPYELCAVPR
Sequence of PTH receptor 1 on MC3T3-E1 cells (murine) (P41593 27-591): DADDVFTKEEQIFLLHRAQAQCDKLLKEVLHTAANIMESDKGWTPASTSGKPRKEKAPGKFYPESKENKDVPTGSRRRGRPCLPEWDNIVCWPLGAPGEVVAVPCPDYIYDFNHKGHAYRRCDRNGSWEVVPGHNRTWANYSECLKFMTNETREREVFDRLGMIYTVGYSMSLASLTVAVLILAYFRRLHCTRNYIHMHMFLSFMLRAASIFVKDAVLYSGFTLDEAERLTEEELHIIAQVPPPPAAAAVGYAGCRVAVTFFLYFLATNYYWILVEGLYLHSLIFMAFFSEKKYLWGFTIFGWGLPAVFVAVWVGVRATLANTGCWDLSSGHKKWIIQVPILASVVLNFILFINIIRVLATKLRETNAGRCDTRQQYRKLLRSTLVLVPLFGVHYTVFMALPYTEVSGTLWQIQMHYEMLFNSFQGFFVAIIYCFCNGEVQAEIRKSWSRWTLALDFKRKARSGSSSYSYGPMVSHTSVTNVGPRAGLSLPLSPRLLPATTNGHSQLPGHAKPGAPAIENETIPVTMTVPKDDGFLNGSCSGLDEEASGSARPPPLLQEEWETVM

PTH(1-34) (peptide)
Emax, cAMP efficacy assay in MC3T3-E1 cells [1]: 4.4 pmol/well

B1: H-Ac5c-Val-Aib-Glu-Ile-Gln-Leu-Met-His-Gln-Har-Ala-Lys( )-Trp-Leu-Asn-Glu( )-NH2 (peptide)
chain: H-[Ac5c]V[Aib]EIQLMHQ[hArg]AKWLNE-NH2
modifications: lactam 13-17
SMILES: CC[C@H](C)[C@H](NC(=O)[C@H](CCC(=O)O)NC(=O)C(C)(C)NC(=O)[C@@H](NC(=O)C1(N)CCCC1)C(C)C)C(=O)N[C@@H](CCC(N)=O)C(=O)N[C@@H](CC(C)C)C(=O)N[C@@H](CCSC)C(=O)N[C@@H](Cc1c[nH]cn1)C(=O)N[C@@H](CCC(N)=O)C(=O)N[C@@H](CCCCNC(=N)N)C(=O)N[C@@H](C)C(=O)N[C@H]1CCCCNC(=O)CC[C@@H](C(N)=O)NC(=O)[C@H](CC(N)=O)NC(=O)[C@H](CC(C)C)NC(=O)[C@H](Cc2c[nH]c3ccccc23)NC1=O
CYP2D6 activity (% of vehicle), dextrorphan formation rate in human liver microsomes, 10 µM peptide (CYP2D6): 85 % of vehicle | Emax, cAMP efficacy assay in Saos-2 cells (9T, trifluoroacetate salt) (relative to control (SEQ ID NO: 32)) (Saos-2 PTH1R): 1.03 | pEC50, cAMP efficacy assay in Saos-2 cells (9T, trifluoroacetate salt) (Saos-2 PTH1R): 7.85 -log(M)

B2: H-Ac5c-Val-Aib-Glu-Ile-Gln-Leu-Met-His-Asn-Leu-Gly-Lys-His-Leu-Asn-Asp-NH2 (peptide)
chain: H-[Ac5c]V[Aib]EIQLMHNLGKHLND-NH2
SMILES: CC[C@H](C)[C@H](NC(=O)[C@H](CCC(=O)O)NC(=O)C(C)(C)NC(=O)[C@@H](NC(=O)C1(N)CCCC1)C(C)C)C(=O)N[C@@H](CCC(N)=O)C(=O)N[C@@H](CC(C)C)C(=O)N[C@@H](CCSC)C(=O)N[C@@H](Cc1c[nH]cn1)C(=O)N[C@@H](CC(N)=O)C(=O)N[C@@H](CC(C)C)C(=O)NCC(=O)N[C@@H](CCCCN)C(=O)N[C@@H](Cc1c[nH]cn1)C(=O)N[C@@H](CC(C)C)C(=O)N[C@@H](CC(N)=O)C(=O)N[C@@H](CC(=O)O)C(N)=O
CYP2D6 activity (% of vehicle), dextrorphan formation rate in human liver microsomes, 10 µM peptide (CYP2D6): 57 % of vehicle | CYP2D6 activity (% of vehicle), dextrorphan formation rate in human liver microsomes, 10 µM peptide (CYP2D6; record 2): 107 % of vehicle | Emax, cAMP efficacy assay in Saos-2 cells (34T, trifluoroacetate salt) (relative to control (SEQ ID NO: 32)) (Saos-2 PTH1R): 1.12 | pEC50, cAMP efficacy assay in Saos-2 cells (34T, trifluoroacetate salt) (Saos-2 PTH1R): 6.67 -log(M)

H-[Ac5c]V[Aib]EIQLLHQ[hArg]AKWLND-NH2 (lactam 13-17; also: acetate and trifluoroacetate salts) [H-Ac5c-Val-Aib-Glu-Ile-Gln-Leu-Leu-His-Gln-Har-Ala-Lys( )-Trp-Leu-Asn-Asp( )-NH2]
CYP2D6 activity (% of vehicle), dextrorphan formation rate in human liver microsomes, 10 µM peptide (CYP2D6): 90 % of vehicle | Emax, cAMP efficacy assay in Saos-2 cells (19A/T, acetate/trifluoroacetate salts) (relative to control (SEQ ID NO: 32)) (Saos-2 PTH1R): 1.05 | pEC50, cAMP efficacy assay in Saos-2 cells (19A/T, acetate/trifluoroacetate salts) (Saos-2 PTH1R): 7.99 -log(M)

B3: H-Ac5c-Val-Aib-Glu-Ile-Gln-Leu-Val-His-Gln-Har-Ala-Lys( )-Trp-Leu-Asn-Asp( )-NH2 (peptide)
chain: H-[Ac5c]V[Aib]EIQLVHQ[hArg]AKWLND-NH2
modifications: lactam 13-17
SMILES: CC[C@H](C)[C@H](NC(=O)[C@H](CCC(=O)O)NC(=O)C(C)(C)NC(=O)[C@@H](NC(=O)C1(N)CCCC1)C(C)C)C(=O)N[C@@H](CCC(N)=O)C(=O)N[C@@H](CC(C)C)C(=O)N[C@H](C(=O)N[C@@H](Cc1c[nH]cn1)C(=O)N[C@@H](CCC(N)=O)C(=O)N[C@@H](CCCCNC(=N)N)C(=O)N[C@@H](C)C(=O)N[C@H]1CCCCNC(=O)C[C@@H](C(N)=O)NC(=O)[C@H](CC(N)=O)NC(=O)[C@H](CC(C)C)NC(=O)[C@H](Cc2c[nH]c3ccccc23)NC1=O)C(C)C
CYP2D6 activity (% of vehicle), dextrorphan formation rate in human liver microsomes, 10 µM peptide (CYP2D6): 92 % of vehicle | Emax, cAMP efficacy assay in Saos-2 cells (21T, trifluoroacetate salt) (relative to control (SEQ ID NO: 32)) (Saos-2 PTH1R): 1.4 | pEC50, cAMP efficacy assay in Saos-2 cells (21T, trifluoroacetate salt) (Saos-2 PTH1R): 6.82 -log(M)

B4: H-Ac5c-Val-Aib-Glu-Ile-Gln-Leu-Leu-His-Gln-Har-Ala-Dpr( )-Trp-Leu-Asn-Asp( )-NH2 (peptide)
chain: H-[Ac5c]V[Aib]EIQLLHQ[hArg]A[Dap]WLND-NH2
modifications: lactam 13-17
SMILES: CC[C@H](C)[C@H](NC(=O)[C@H](CCC(=O)O)NC(=O)C(C)(C)NC(=O)[C@@H](NC(=O)C1(N)CCCC1)C(C)C)C(=O)N[C@@H](CCC(N)=O)C(=O)N[C@@H](CC(C)C)C(=O)N[C@@H](CC(C)C)C(=O)N[C@@H](Cc1c[nH]cn1)C(=O)N[C@@H](CCC(N)=O)C(=O)N[C@@H](CCCCNC(=N)N)C(=O)N[C@@H](C)C(=O)N[C@H]1CNC(=O)C[C@@H](C(N)=O)NC(=O)[C@H](CC(N)=O)NC(=O)[C@H](CC(C)C)NC(=O)[C@H](Cc2c[nH]c3ccccc23)NC1=O
CYP2D6 activity (% of vehicle), dextrorphan formation rate in human liver microsomes, 10 µM peptide (CYP2D6): 101 % of vehicle | Emax, cAMP efficacy assay in Saos-2 cells (17T, trifluoroacetate salt) (relative to control (SEQ ID NO: 32)) (Saos-2 PTH1R): 1.25 | pEC50, cAMP efficacy assay in Saos-2 cells (17T, trifluoroacetate salt) (Saos-2 PTH1R): 6.11 -log(M)
